In this assay the target is T1, recombinant rat apolipoprotein E (rat), P02650.
T1 chain: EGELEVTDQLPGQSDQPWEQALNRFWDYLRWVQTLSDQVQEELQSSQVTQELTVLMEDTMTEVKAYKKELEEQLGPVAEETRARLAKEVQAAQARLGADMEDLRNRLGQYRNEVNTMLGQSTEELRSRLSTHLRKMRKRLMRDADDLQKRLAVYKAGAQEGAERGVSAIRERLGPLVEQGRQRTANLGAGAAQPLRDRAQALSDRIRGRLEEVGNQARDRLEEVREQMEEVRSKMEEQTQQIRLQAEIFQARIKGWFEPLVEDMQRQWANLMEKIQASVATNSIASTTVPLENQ
Nature of the assay: SEC. Conditions: remark: other sources report otherwise.

B1: recombinant rat apolipoprotein E, P02650 19-312 (natural protein)
chain: T1 chain
One may read the stoichiometry N as a count of units in the complex or per binding partner. As for B1, the stoichiometry N is 4.

For the origin of these results see PMC3543869.
